Laboratory results reported in article PMC6430397, “The pharmacological properties of 3-arm or 4-arm DOTA constructs for conjugation to α-melanocyte-stimulating hormone analogues for melanoma imaging” (PLoS ONE, 2019).

Assays:
[1] = Partition coefficient, n-octanol / 0.1 M phosphate buffer; assay type: physicochemical; conditions: pH 7.4
Method: The partition coefficients of ^111In-labeled 3-arm and 4-arm DOTA-α-MSH were measured using 2.0 mL n-octanol as the organic phase and 2.0 mL 0.l M phosphate buffer as the aqueous phase (pH 7.4 for plasma). N-octanol and the buffer were pre-mixed twice using a mechanical mixer for 1 min at room temperature. Then, 20 µL radioactive sample were added and mixed twice using a mechanical mixer for 1 min at room temperature. The radioactivity of 200 uL of each phase was measured after centrifugation. Calculation of log (n-octanol/0.l M phosphate buffer) was performed.

[2] = Biological distribution in B16-F1 melanoma-bearing mice; assay type: in vivo, mouse; conditions: male, C57BL6, mouse, in vivo, iv, 37 kBq/mouse, total radioactivity, Biological distribution
Method: C57BL6 male mice (5 weeks old) were transplanted with B16-F1 cells (5 × 10^5 cells/100 μL) into the thigh of the mice. […] The mice were housed and continuously monitored each day for 2 weeks in a 12-hour light/12-hour dark cycle with free access to food and water. The tumor size reached 8.7 ± 2.8 mm at 2 weeks after transplant of cells. Two mice with tumor sizes of 13 and 15 mm were excluded from our experiments. Mice with a tumor size <10 mm were fasted with no food overnight with water supplied ad libitum before experiments.
For biological distribution studies, B16-F1-bearing mice were administered ^111In-labeled 3-arm or 4-arm DOTA-α-MSH via the tail vein (37 kBq/mouse). At 10, 30, 60, 120, and 180 min after injection, the mice were euthanized under isoflurane (n = 3 per time point), and the following tissues were collected: brain, lung, heart, stomach, liver, small intestine, large intestine, kidney, blood, muscle, and B16-F1 melanoma. Tissues were weighed, and radioactivity was quantified using an automated γ-ray counter to calculate the percent injected dose (%ID) or percent injected dose per gram of tissue (%ID/g).
For SPECT imaging, ^111In-labeled 3-arm or 4-arm DOTA-α-MSH was injected into the tail vein of four B16-F1-bearing mice in total (37 MBq/mouse). For SPECT imaging, acquisition was started at 10 min after injection and continued every 10 min for 180 min. The data were reconstructed using the ordered subset expectation maximization method with 16 subsets and six iterations including no scatter and attenuation correction. The voxel size was set to 0.8×0.8×0.8 mm. Post-reconstruction smoothing filtering was applied using a 1.0-mm Gaussian filter. […] In these images, three to five regions of interest were placed over the kidney, muscle, and B16-F1 melanoma in which accumulation could be seen, and the time activity curve of each was obtained as the %ID/g.

MC1-R = molecular target: T1, MC1-R (Mus musculus, UniProt Q01727); conditions: endogenous ligand; cited from earlier work
T1 construct: host or cells: B16-F1 mouse melanoma cells
From the text: The melanocortin 1 receptor (MC1-R) is one of the most targeted melanoma antigens and belongs to the melanocortin family of G protein-coupled receptors, which consists of five receptor subtypes, MC1-R to MC5-R. MC1-R is expressed in nearly all primary and metastatic melanomas and 95% of uveal melanomas. MC1-R is an attractive receptor for molecular-targeted imaging and radionuclide therapy of melanoma. α-melanocyte-stimulating hormone (α-MSH), a tridecapeptide, is an endogenous ligand for the melanocortin family of receptors, with subnanomolar binding affinity to MC1-R [5].

T1 sequence (Q01727 whole entry): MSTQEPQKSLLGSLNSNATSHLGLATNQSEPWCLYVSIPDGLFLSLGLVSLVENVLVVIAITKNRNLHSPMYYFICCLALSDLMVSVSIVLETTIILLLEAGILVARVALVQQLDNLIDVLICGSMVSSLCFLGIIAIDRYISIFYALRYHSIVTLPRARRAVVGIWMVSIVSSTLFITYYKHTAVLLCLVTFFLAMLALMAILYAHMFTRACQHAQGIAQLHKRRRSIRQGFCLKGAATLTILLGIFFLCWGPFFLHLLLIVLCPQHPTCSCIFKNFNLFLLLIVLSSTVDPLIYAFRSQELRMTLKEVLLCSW

## CSCC[C@H](NC(=O)[C@H](CO)NC(=O)[C@H](Cc1ccc(O)cc1)NC(=O)[C@H](CO)NC(C)=O)C(=O)N[C@@H](CCC(=O)O)C(=O)N[C@@H](Cc1c[nH]cn1)C(=O)N[C@@H](Cc1ccccc1)C(=O)N[C@@H](CCCNC(=N)N)C(=O)N[C@@H](Cc1c[nH]c2ccccc12)C(=O)NCC(=O)N[C@@H](CCCCNC(=O)CN1CCN(CC(=O)O)CCN(CC(=O)O)CCN(CC(=O)O)CC1)C(=O)N1CCC[C@H]1C(=O)N[C@H](C(=O)O)C(C)C [^111In-labeled 3-arm DOTA-α-MSH, metal not drawn]
[1]
  logD: -0.28 ± 0.03
[2]; Blood
  tissue uptake at 10 min: 3.11 %ID/g
  tissue uptake at 0.5 h: 1.91 %ID/g
  tissue uptake at 1 h: 0.89 %ID/g
  tissue uptake at 2 h: 0.21 %ID/g
  tissue uptake at 3 h: 0.05 %ID/g
[2]; Brain
  tissue uptake at 10 min: 0.04 %ID/g
  tissue uptake at 0.5 h: 0.05 %ID/g
  tissue uptake at 1 h: 0.05 %ID/g
  tissue uptake at 2 h: 0.03 %ID/g
  tissue uptake at 3 h: 0.02 %ID/g
[2]; Heart
  tissue uptake at 10 min: 0.74 %ID/g
  tissue uptake at 0.5 h: 0.66 %ID/g
  tissue uptake at 1 h: 0.46 %ID/g
  tissue uptake at 2 h: 0.14 %ID/g
  tissue uptake at 3 h: 0.06 %ID/g
[2]; Kidney
  tissue uptake at 10 min: 23.6 %ID/g
  tissue uptake at 0.5 h: 18.4 %ID/g
  tissue uptake at 1 h: 11.9 %ID/g
  tissue uptake at 2 h: 8.42 %ID/g
  tissue uptake at 3 h: 7.07 %ID/g
[2]; Large intestine
  tissue uptake dose at 10 min: 0.03 %ID
  tissue uptake dose at 0.5 h: 0.08 %ID
  tissue uptake dose at 1 h: 0.09 %ID
  tissue uptake dose at 2 h: 0.05 %ID
  tissue uptake dose at 3 h: 0.04 %ID
[2]; Liver
  tissue uptake at 10 min: 2.3 %ID/g
  tissue uptake at 0.5 h: 1.15 %ID/g
  tissue uptake at 1 h: 1.12 %ID/g
  tissue uptake at 2 h: 1.23 %ID/g
  tissue uptake at 3 h: 0.72 %ID/g
[2]; Lung
  tissue uptake at 10 min: 0.51 %ID/g
  tissue uptake at 0.5 h: 0.66 %ID/g
  tissue uptake at 1 h: 0.31 %ID/g
  tissue uptake at 2 h: 0.27 %ID/g
  tissue uptake at 3 h: 0.1 %ID/g
[2]; Melanoma
  tissue uptake at 10 min: 1.71 %ID/g
  tissue uptake at 0.5 h: 1.81 %ID/g
  tissue uptake at 1 h: 2.49 %ID/g
  tissue uptake at 2 h: 3.36 %ID/g
  tissue uptake at 3 h: 3.51 %ID/g
[2]; Muscle
  tissue uptake at 10 min: 0.21 %ID/g
  tissue uptake at 0.5 h: 0.2 %ID/g
  tissue uptake at 1 h: 0.15 %ID/g
  tissue uptake at 2 h: 0.09 %ID/g
  tissue uptake at 3 h: 0.05 %ID/g
[2]; Small intestine
  tissue uptake dose at 10 min: 0.04 %ID
  tissue uptake dose at 0.5 h: 0.08 %ID
  tissue uptake dose at 1 h: 0.09 %ID
  tissue uptake dose at 2 h: 0.12 %ID
  tissue uptake dose at 3 h: 0.1 %ID
[2]; Stomach
  tissue uptake dose at 10 min: 0.06 %ID
  tissue uptake dose at 0.5 h: 0.1 %ID
  tissue uptake dose at 1 h: 0.12 %ID
  tissue uptake dose at 2 h: 0.11 %ID
  tissue uptake dose at 3 h: 0.12 %ID

## α-melanocyte-stimulating hormone [α-MSH]
MC1-R
  binding affinity to MC1-R: subnanomolar
